Measured values from PMC9898758, “Analysis of a degron-containing reporter protein GFP-CL1 reveals a role for SUMO1 in cytosolic protein quality control” (The Journal of Biological Chemistry, 2022).

Target: T1, MBP-Slx5 (UniProt P32828 1-619)
T1 construct: Plasmid was a gift from Dr Oliver Kerscher; also called MBP-tagged SLX5; source: E. coli Rosetta, purified (amylose resin)
T1 sequence (looked up): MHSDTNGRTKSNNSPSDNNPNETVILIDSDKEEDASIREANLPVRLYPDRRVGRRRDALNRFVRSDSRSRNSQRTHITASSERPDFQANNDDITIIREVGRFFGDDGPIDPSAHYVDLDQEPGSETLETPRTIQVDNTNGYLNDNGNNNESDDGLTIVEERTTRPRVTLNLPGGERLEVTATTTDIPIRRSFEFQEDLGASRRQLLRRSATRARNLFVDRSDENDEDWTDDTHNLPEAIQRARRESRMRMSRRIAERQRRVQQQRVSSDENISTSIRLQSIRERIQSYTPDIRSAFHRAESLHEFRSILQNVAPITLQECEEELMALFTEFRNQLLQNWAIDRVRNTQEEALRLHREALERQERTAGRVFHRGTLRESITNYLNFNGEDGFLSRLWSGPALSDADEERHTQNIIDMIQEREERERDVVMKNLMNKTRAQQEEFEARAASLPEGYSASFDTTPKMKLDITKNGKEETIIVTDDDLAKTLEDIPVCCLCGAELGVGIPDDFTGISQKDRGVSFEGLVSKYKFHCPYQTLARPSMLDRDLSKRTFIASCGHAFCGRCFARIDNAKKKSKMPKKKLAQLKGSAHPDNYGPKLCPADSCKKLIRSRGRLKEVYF
Assay: pull-down; MBP-Slx5 or MBP alone immobilised on amylose beads, incubated with purified GST, GST-Smt3 or GST-Smt3-K38/40A; washes, SDS-PAGE, immunoblot with anti-MBP and anti-GST
Conditions: both partners purified

B1: GST-tagged Smt3-K38/40A mutant (natural protein, S. cerevisiae)
chain: EVKPEVKPETHINLKVSDGSSEIFFAIAKTTPLRRLMEAFAKRQGKEMDSLRFLYDGIRIQADQTPEDLDMEDNDIIEAHREQIGG
notes: Smt3 of S. cerevisiae with K38A and K40A; SMT3^K38/40A cloned into pGEX-6p-1; also called GST-SMT3^K38/40A; GST-Smt3-K30/40A; source: E. coli Rosetta, purified (Glutathione Sepharose 4B)
**Q.** B1 was tested. Which “fold reduction in binding against WT Smt3” value did it give?
**A.** > 5 fold
